According to patent US12577303B2:
Substitutions are numbered along the chain they refer to. Like-named read-outs stand apart in the source and are kept apart here.

Experiments:
[1] = molecular target: human Sirpα-V1 recombinant protein (human) (UniProt P78324); experiment: ELISA, subclone supernatant
[2] = molecular target: human Sirpα-V2-his (human); experiment: ELISA, subclone supernatant
[3] = molecular target: human Sirpα-V1-his (human) (UniProt P78324); experiment: blocking ELISA: hSirpα-V1-his, hCD47-Fc (dimer)
[4] = molecular target: human Sirpα-V1-hFc (human) (UniProt P78324); experiment: blocking ELISA: hSirpα-V1-hFc (dimer), hCD47-his
[5] = molecular target: Cyno Sirpα L932 (cynomolgus); experiment: ELISA
Cyno Sirpα L932 (cynomolgus), sequence (chain, as listed by the source): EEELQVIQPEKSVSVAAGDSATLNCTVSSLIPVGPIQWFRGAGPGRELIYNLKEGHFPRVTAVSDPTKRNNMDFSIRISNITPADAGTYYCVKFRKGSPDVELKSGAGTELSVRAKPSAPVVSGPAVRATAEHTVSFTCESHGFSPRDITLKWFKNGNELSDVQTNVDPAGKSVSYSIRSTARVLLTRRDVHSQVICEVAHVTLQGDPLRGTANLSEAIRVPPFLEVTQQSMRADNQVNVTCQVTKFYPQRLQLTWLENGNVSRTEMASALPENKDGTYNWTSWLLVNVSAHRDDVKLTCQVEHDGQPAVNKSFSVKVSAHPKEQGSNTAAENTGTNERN

[6] = molecular target: Cyno Sirpα L933 (cynomolgus); experiment: ELISA
Cyno Sirpα L933 (cynomolgus), sequence (chain, as listed by the source): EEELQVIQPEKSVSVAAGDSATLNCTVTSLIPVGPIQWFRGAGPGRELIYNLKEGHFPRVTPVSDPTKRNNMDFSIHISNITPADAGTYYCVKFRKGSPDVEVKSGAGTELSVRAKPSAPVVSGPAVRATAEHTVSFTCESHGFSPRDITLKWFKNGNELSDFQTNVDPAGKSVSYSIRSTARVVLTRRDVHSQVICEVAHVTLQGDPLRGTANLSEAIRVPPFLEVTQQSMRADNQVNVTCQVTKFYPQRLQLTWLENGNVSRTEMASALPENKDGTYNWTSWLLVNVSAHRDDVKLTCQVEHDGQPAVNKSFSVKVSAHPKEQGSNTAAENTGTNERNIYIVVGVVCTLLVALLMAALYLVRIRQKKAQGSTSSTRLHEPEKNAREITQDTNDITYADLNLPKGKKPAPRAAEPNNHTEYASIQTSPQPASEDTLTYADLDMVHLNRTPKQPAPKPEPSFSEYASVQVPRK

[7] = molecular target: Cyno Sirpα L936 (cynomolgus); experiment: ELISA
Cyno Sirpα L936 (cynomolgus), sequence (chain, as listed by the source): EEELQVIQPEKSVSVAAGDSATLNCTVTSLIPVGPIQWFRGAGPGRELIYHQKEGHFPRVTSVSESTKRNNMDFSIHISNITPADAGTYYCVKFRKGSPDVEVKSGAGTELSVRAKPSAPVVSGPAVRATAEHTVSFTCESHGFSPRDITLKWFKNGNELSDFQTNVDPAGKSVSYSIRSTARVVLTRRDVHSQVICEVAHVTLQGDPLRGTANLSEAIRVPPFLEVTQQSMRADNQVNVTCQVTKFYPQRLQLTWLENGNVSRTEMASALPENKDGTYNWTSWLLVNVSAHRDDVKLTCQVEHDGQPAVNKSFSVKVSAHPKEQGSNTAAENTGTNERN

[8] = molecular target: Cyno Sirpα L937 (cynomolgus); experiment: ELISA
Cyno Sirpα L937 (cynomolgus), sequence (chain, as listed by the source): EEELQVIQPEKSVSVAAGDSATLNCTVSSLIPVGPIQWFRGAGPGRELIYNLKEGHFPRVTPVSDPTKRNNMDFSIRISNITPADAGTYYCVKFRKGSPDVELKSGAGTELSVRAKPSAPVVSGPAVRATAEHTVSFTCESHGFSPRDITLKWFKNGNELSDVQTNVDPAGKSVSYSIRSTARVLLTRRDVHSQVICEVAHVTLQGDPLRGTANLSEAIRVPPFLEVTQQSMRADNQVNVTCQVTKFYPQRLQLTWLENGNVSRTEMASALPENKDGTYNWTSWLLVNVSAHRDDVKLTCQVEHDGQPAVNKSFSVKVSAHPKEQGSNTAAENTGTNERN

[9] = molecular target: human Sirpα-V1 recombinant protein (human) (UniProt P78324); experiment: ELISA
[10] = molecular target: human Sirpα-V2-his (human); experiment: ELISA
[11] = molecular target: human Sirpα-V1 recombinant protein (human) (UniProt P78324); experiment: ELISA; remark: listed apart in the source
[12] = molecular target: human Sirpα-V1-hFc (human) (UniProt P78324); experiment: blocking ELISA: hSirpα (dimer) to hCD47
[13] = molecular target: human Sirpα-V1-his (human) (UniProt P78324); experiment: blocking ELISA: hSirpα to hCD47 (dimer)
[14] = molecular target: human Sirpα-V1-hFc (human) (UniProt P78324); experiment: blocking ELISA: hSirpα (dimer) to hCD47; remark: listed apart in the source
[15] = molecular target: human Sirpα-V1-his (human) (UniProt P78324); experiment: blocking ELISA: hSirpα to hCD47 (dimer); remark: listed apart in the source

B1: 14H6E5B5C8G2 (antibody, V domains shown)
VH: QVHLQQPGAELVKPGASVKLSCKASGYNFNIYWINWVKQRPGQGLEWIGNIYPSSISTNYNEKFKTKATLTVDKSSNTVYMQFSSLTSEDSAVYYCARSEGTYYGGRYEGDWFGYWGQGTLVTVSA
VL: DIQMTQTTSSLSASLGDRVTISCRASQDIRNYLNWYQQKPDGTVKLLIYFTSTLHSGVPSRFSGSGSGTDYSLTISNLEQEDIATYFCQQGNTLPWTFGGGTKLEIK
ELISA value, activity of binding [1]: 1.27
ELISA value, activity of binding [2]: 1.25
ELISA value of the blocking assay [3]: 0.42
ELISA value of the blocking assay [4]: 0.069

B2: human-murine chimeric antibody mab14c (antibody, V domains shown)
VH: B1 VH
VL: DIQMTQTTSSLSASLGDRVTISCRASQDIRNYLNWYQQKPDGTVKLLIYFTSTLHSGVPSRFSGSGSGTDYSLTISNLEQEDIATYFCQQGNTLPWTFGGGTKLEIKR
EC50 [5]: 0.1 nM
EC50 [6]: 0.14 nM
EC50 [7]: 0.099 nM
EC50 [8]: 0.099 nM
EC50 [9]: 0.16 nM
EC50 [10]: 0.14 nM
EC50 [11]: 0.093 nM
IC50 [12]: 5.7 nM
IC50 [13]: 5.54 nM
IC50 [14]: 5.48 nM
IC50 [15]: 9.98 nM

B3: mab14-h2 (antibody, V domains shown)
VH: QVQLVQSGAEVKKPGASVKVSCKASGYNFNIYWINWVKQAPGQGLEWIGNIYPSSISTNYNEKFKTKATLTVDKSTSTVYMEFSSLRSEDTAVYYCARSEGTYYGGRYEGDWFGYWGQGTLVTVSS
VL: DIQMTQSPSSLSASVGDRVTITCRASQDIRNYLNWYQQKPGGTVKLLIYFTSTLHSGVPSRFSGSGSGTDYTLTISSLQPEDFATYYCQQGNTLPWTFGGGTKVEIKR
EC50 [11]: 0.073 nM

B4: mab14-h5 (antibody, V domains shown)
VH: B3 VH with K38R, K67R, F83L
VL: B3 VL
EC50 [11]: 0.061 nM
IC50 [14]: 8.99 nM
IC50 [15]: 8.47 nM

B5: mab14-h4 (antibody, V domains shown)
VH: B3 VH with K38R, K67R, K74T, F83L
VL: B3 VL
EC50 [11]: 0.088 nM

B6: mab14-h7 (antibody, V domains shown)
VH: B3 VH with K74T, F83L
VL: B3 VL
EC50 [11]: 0.081 nM

B7: mab14-h6 (antibody, V domains shown)
VH: B3 VH with K67R, K74T, F83L
VL: B3 VL
EC50 [11]: 0.095 nM

B8: mab14-h3 (antibody, V domains shown)
VH: B3 VH with K38R, I48M, K67R, K74T, F83L
VL: B3 VL
EC50 [11]: 0.103 nM
